Here are results for 2 substances from publication PMC12615485, “New dengue virus inhibitors targeting NS3-NS5 interaction identified by in silico screening” (Frontiers in Microbiology, 2025).

In assay [1] the target is NHS-NS5(270-900): 6His-NS5 RdRp(270-900) labelled with RED-NHS (DENV-2 NGC strain). In words: MST.
Assay [2] concerns the target 6His-NS5 RdRp(270-900) of DENV-2 NGC strain (DENV-2 NGC strain). In words: ELISA.

As usually defined, the Kd is a measure of binding affinity in units of concentration. Higher therefore signals weaker binding. In the case of “6His-NS3(177-618), helicase portion of NS3 (domain or fragment)”, in assay [1], the Kd is 7.2 µM.

The IC50 is the midpoint of a concentration-inhibition curve. As to NS3(566-585) peptide of DENV-2, the IC50 in assay [2] was determined as 127 µM.
